Reference: article PMC10716038, “Talin and kindlin use integrin tail allostery and direct binding to activate integrins” (Nature Structural & Molecular Biology, 2023)
Positions count from the first letter of the chain named. No end group written: not given here.

Assays:
kindlin-2 (KIND2) [1] = target: T1, kindlin-2 (KIND2) (UniProt Q8CIB5 1-680); assay: NMR titration; 15N-labelled TLN1-F3 observed in the presence of β1-CT at saturating concentration (200 µM) with 75 µM KIND2 added; 298 K; conditions: both partners purified
T1 construct: kindlin-2 (KIND2) without the deletions of ΔKIND2; In FC-RDA a copy labelled with Alexa 647 (647–KIND2) was the reporter; also called 647–KIND2; source: E. coli Rosetta, purified (IMAC, SEC); not shown: His10, N-terminal, cleaved; SUMO, N-terminal, cleaved
T1 sequence (looked up): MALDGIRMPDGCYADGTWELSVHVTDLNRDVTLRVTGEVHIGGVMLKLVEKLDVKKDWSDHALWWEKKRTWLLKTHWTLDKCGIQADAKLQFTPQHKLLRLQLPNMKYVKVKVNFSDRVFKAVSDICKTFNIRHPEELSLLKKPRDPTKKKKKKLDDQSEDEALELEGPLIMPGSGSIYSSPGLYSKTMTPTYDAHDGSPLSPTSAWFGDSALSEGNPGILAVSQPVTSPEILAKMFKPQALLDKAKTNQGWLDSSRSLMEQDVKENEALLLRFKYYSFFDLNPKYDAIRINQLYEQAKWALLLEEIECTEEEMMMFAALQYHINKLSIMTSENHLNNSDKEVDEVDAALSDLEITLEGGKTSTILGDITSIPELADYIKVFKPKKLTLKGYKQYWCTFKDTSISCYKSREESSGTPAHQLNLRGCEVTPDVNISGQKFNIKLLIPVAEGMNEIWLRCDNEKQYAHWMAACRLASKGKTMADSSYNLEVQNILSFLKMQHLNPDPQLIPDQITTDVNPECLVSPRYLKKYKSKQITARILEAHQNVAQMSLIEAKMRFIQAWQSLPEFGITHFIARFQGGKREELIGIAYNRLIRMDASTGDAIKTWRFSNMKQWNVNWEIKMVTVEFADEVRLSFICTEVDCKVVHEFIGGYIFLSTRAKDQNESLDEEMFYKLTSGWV

kindlin-2 (KIND2) [2] = target: T2, kindlin-2 (KIND2) (UniProt Q8CIB5 1-680); assay: MST; apparent, with THD1
T2 chain: T1 sequence (looked up)

[3] = target: T3, TLN1-F3–ΔKIND2^Y13A fusion protein; assay: MST; TLN1-F3 contribution
T3 chain: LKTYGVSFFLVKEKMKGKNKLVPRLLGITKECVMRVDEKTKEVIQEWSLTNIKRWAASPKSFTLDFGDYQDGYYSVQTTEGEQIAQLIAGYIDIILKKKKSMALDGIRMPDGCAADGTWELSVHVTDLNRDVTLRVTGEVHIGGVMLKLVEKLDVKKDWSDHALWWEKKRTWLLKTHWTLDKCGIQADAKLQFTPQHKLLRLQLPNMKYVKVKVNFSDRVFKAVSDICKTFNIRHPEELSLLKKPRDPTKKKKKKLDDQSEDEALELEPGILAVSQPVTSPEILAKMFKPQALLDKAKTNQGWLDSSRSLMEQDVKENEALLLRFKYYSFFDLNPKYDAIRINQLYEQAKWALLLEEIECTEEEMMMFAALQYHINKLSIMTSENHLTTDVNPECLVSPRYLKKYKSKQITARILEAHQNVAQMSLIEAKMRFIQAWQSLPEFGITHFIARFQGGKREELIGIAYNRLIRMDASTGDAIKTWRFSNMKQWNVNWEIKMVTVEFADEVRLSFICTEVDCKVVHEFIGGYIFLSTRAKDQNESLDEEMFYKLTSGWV

[4] = target: T4, TLN1-F3–ΔKIND2 fusion protein; assay: MST; TLN1-F3 contribution
T4 chain: T3 chain with A114Y

kindlin-2 (KIND2) [5] = target: T2, kindlin-2 (KIND2); assay: MST
[6] = target: T5, talin-1 head domain (THD1) (UniProt P26039 1-405); assay: MST
T5 chain: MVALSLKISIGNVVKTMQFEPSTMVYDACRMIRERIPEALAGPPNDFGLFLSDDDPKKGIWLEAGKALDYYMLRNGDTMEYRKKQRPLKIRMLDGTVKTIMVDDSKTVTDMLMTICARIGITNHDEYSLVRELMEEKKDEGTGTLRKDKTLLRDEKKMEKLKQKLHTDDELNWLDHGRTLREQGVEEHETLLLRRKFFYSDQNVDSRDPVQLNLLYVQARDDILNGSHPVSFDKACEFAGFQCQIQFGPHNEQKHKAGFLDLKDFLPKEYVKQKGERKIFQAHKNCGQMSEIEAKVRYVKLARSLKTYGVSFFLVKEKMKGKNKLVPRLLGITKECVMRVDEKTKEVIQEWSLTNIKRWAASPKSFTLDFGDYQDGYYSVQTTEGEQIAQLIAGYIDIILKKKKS

kindlin-2 (KIND2) [7] = target: T2, kindlin-2 (KIND2); assay: MST
[8] = target: T6, talin-2 head domain (THD2) (UniProt Q71LX4 1-408); assay: MST
T6 chain: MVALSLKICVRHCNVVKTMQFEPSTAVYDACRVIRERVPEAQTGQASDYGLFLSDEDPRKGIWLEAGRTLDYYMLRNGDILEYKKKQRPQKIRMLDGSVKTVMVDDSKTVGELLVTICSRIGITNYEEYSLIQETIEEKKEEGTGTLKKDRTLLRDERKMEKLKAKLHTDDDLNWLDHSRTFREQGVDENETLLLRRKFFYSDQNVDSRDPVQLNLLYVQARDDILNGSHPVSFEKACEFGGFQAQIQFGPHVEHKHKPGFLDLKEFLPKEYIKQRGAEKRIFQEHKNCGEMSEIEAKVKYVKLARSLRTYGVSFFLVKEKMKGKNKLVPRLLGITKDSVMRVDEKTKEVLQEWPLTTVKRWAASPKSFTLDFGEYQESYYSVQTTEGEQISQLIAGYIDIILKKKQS

[9] = target: T5, talin-1 head domain (THD1); assay: MST; apparent, with KIND2

B1: F3 domain of TLN1 (TLN1-F3) (domain or fragment, UniProt P26039 305-405, looked up)
chain: LKTYGVSFFLVKEKMKGKNKLVPRLLGITKECVMRVDEKTKEVIQEWSLTNIKRWAASPKSFTLDFGDYQDGYYSVQTTEGEQIAQLIAGYIDIILKKKKS
notes: Used unlabelled, 15N-labelled or partially deuterated in NMR; also called T1-F3; source: E. coli (DE3) Rosetta 2, purified (IMAC, SEC); not shown: His10, N-terminal, cleaved; SUMO, N-terminal, cleaved
Does B1 bind (kindlin-2 (KIND2) [1])?
Result: binds

What does the source list for {ATTO 488}-KLLMIIHDRREFAKFEKEKMNAKWDTGENPIYKSAVTTVVNPKYEGK [ATTO 488-labelled β1-CT (488–β1-CT)]?
Kd (kindlin-2 (KIND2) [2]): 42 µM; Kd [3]: 15.7 µM; Kd [4]: 25.3 µM; Kd (kindlin-2 (KIND2) [5]): 3 µM; Kd [6]: 140 µM; Kd (kindlin-2 (KIND2) [7]): 2.9 µM; Kd [8]: 25 µM; Kd [9]: 153 µM
